Assay results reported in US20250076311A1 (Chugai, published 2025).

How the values were obtained:
[1] = molecular target: T1, cynomolgus monkey FcγRIIb extracellular domain, His-tagged (cynomolgus monkey); experiment: SPR Biacore, antibody captured, FcgR analyte
T1 construct: also called cyno FcγRIIb; cynoFcγRIIb; not shown: C-terminal His-tag
T1 chain: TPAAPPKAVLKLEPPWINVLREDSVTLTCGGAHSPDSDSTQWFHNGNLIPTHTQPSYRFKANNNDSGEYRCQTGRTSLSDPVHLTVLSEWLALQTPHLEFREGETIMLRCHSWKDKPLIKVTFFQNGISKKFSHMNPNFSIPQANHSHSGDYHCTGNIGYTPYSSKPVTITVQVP

[2] = molecular target: T2, human FcγRIIaH extracellular domain, C-terminal His-tag (human, UniProt P12318 34-217); experiment: SPR, anti-kappa capture; KD(SG1)/KD(variant)
T2 construct: also called FcgRIIaH; human FcγRIIa (type H)
T2 sequence: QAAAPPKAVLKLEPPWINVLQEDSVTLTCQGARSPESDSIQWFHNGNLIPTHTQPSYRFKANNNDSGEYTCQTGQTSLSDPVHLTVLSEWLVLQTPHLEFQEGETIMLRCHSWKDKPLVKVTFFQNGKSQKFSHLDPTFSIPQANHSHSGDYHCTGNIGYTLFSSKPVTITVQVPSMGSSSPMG

[3] = molecular target: T3, cynomolgus monkey FcγRIIa3 extracellular domain, His-tagged (cynomolgus monkey); experiment: SPR Biacore, KD(SG1)/KD(variant)
T3 construct: also called cyno FcγRIIa3; cynoFcgRIIa3; not shown: C-terminal His-tag
T3 chain: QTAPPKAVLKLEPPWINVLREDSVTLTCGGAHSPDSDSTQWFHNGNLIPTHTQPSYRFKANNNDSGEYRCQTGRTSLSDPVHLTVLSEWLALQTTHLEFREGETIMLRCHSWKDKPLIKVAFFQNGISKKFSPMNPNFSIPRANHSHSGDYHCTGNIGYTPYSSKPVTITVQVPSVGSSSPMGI

[4] = molecular target: T4, cynomolgus monkey FcγRIIa2 extracellular domain, His-tagged (cynomolgus monkey); experiment: SPR Biacore, antibody captured, FcgR analyte
T4 construct: also called cyno FcγRIIa2; cynoFcgRIIa2; not shown: C-terminal His-tag
T4 chain: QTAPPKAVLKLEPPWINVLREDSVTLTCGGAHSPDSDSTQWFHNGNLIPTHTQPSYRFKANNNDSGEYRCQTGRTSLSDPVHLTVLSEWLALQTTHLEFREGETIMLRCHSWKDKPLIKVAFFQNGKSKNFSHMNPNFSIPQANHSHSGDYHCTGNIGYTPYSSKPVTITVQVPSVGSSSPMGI

[5] = molecular target: T5, human FcγRIIIaV extracellular domain, His-tagged (human, UniProt P08637 17-208); experiment: SPR Biacore, antibody captured, FcgR analyte
T5 construct: also called FcgRIIIaV; not shown: C-terminal His-tag
T5 sequence (P08637 17-208 F176V): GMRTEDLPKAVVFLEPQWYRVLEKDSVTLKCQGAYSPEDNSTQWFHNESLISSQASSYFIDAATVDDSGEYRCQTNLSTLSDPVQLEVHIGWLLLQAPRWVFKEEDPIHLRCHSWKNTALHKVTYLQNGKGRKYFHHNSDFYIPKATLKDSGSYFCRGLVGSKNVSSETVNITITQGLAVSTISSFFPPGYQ

[6] = molecular target: T4, cynomolgus monkey FcγRIIa2 …; experiment: SPR Biacore, KD(SG1)/KD(variant)
[7] = molecular target: T6, human FcγRIIaR extracellular domain, His-tagged (human, UniProt P12318 34-217); experiment: SPR Biacore, KD(SG1)/KD(variant)
T6 construct: also called human FcγRIIa (type R); FcgRIIaR; not shown: C-terminal His-tag
T6 chain: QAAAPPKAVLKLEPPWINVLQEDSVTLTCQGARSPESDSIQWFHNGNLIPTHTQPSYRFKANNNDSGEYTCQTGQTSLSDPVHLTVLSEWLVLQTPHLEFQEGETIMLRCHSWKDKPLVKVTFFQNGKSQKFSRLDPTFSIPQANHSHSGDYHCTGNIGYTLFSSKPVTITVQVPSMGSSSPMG

[8] = molecular target: T7, human FcγRIIb extracellular domain, His-tagged (human, UniProt P31994 43-217); experiment: SPR Biacore, KD(SG1)/KD(variant)
T7 construct: also called FcgRIIb (human); not shown: C-terminal His-tag
T7 sequence: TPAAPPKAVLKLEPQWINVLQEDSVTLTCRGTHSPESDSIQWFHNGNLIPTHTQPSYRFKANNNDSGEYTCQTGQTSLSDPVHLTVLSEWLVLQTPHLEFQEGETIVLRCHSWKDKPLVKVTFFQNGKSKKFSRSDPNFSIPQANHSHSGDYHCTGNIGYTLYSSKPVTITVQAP

B1: M103205H795-MY015/M103202L889-SK1 (antibody, human IgG1, kappa, name in EU numbering)
heavy: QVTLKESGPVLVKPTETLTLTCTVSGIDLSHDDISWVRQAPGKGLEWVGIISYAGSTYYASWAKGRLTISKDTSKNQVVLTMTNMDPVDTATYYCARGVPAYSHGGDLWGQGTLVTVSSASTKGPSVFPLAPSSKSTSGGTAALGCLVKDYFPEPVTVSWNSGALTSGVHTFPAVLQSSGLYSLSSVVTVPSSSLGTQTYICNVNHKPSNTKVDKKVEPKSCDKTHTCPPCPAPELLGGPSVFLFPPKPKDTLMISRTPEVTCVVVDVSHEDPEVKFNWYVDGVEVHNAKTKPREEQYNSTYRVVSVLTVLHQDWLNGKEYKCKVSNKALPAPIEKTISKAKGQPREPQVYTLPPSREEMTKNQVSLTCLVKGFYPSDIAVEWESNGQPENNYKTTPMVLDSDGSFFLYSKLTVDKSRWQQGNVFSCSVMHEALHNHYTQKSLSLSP
light: DIVMTQSPATLSLSPGERATLSCTSSQSVYHANWLSWFQQKPGQPPKLLIYWASTLAYGVPSRFSGSGSGTDFTLTISSLQPEDAATYYCAGGYGGGRYAFGQGTKVEIKRTVAAPSVFIFPPSDEQLKSGTASVVCLLNNFYPREAKVQWKVDNALQSGNSQESVTEQDSKDSTYSLSSTLTLSKADYEKHKVYACEVTHQGLSSPVTKSFNRGEC
notes: Substitution introduced into M103205H795-SG1; EU numbering
Kd [1]: 0.6 µM

B2: MS103240H795-TT91/M103202L1045-SK1 (antibody)
heavy: QVQLVESGGGLVQPGGSLRLSCAVSGIDLSHDDISWVRQAPGKGLEWVSIISYAGSTYYASWAKGRLTISKDTSKNQVVLTMTNMDPVDTATYYCARGVPAYSHGGDLWGQGTLVTVSSASTKGPSVFPLAPSSKSTSGGTAALGCLVKDYFPEPVTVSWNSGALTSGVHTFPAVLQSSGLYSLSSVVTVPSSSLGTQTYICNVNHKPSNTKVDKKVEPKSCDKTHTCPPCPAPEYLGGDSVFLFPPKPKDVLMISRTPEVTCVVIDVSHEDPEVKFNWYVDGVEVHNAKTKPREEQYNSTYRVVSVLPVLHRDWLNGKEYKCKVSNKALPKPIEKTISKAKGQRREPQVYTLPPSREEMTKNQVSLTCLVKGFYPSDIAVEWESNGQPENNYKTTPPVLDSDGSFFLYSKLTVDKSRWQQGNVFSCSVLHEALHAHTTRKELSLSP
light: DIVMTQSPATLSLSPGERATLSCTTSQSVYHENWLSWFQQKPGQPPKLLIYWASTLAYGVPSRFSGSGSGTDFTLTISSLQPEDAATYYCAGGYGGGRYAFGQGTKVEIKRTVAAPSVFIFPPSDEQLKSGTASVVCLLNNFYPREAKVQWKVDNALQSGNSQESVTEQDSKDSTYSLSSTLTLSKADYEKHKVYACEVTHQGLSSPVTKSFNRGEC
KD fold (SG1 = 1) [2]: 0.02 fold

B3: M103205H795-MY043/M103202L889-SK1 (antibody, human IgG1, kappa, name in EU numbering)
heavy: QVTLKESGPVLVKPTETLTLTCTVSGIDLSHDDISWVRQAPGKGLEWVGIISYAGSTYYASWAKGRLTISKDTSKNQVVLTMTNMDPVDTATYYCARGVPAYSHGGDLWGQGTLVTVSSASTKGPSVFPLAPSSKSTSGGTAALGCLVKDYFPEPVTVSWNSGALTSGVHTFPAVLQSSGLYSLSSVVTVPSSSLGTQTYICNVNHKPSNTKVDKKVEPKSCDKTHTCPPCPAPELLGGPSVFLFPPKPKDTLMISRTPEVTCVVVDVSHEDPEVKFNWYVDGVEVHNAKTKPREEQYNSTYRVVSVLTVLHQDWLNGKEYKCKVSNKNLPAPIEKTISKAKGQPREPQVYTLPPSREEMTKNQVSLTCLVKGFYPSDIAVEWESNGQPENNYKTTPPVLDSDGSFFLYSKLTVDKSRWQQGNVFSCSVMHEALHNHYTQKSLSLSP
light: DIVMTQSPATLSLSPGERATLSCTSSQSVYHANWLSWFQQKPGQPPKLLIYWASTLAYGVPSRFSGSGSGTDFTLTISSLQPEDAATYYCAGGYGGGRYAFGQGTKVEIKRTVAAPSVFIFPPSDEQLKSGTASVVCLLNNFYPREAKVQWKVDNALQSGNSQESVTEQDSKDSTYSLSSTLTLSKADYEKHKVYACEVTHQGLSSPVTKSFNRGEC
notes: as for B1
KD fold (SG1 = 1) [3]: 0.5 fold
Kd [4]: 6.1 µM
Kd [5]: 1.2 µM

B4: M103205H795-MY017/M103202L889-SK1 (antibody, human IgG1, kappa, name in EU numbering)
heavy: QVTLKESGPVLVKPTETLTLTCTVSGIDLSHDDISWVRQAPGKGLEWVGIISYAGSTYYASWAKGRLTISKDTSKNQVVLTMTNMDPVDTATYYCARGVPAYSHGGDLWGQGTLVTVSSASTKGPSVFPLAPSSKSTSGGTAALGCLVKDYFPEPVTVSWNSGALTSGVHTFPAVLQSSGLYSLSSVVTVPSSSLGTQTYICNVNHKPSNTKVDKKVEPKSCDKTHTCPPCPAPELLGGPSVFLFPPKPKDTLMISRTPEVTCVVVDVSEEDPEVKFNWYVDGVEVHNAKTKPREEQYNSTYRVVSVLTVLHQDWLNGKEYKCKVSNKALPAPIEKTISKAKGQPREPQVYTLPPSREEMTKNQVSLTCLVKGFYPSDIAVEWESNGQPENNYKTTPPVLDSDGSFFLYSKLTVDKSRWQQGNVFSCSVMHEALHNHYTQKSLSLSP
light: DIVMTQSPATLSLSPGERATLSCTSSQSVYHANWLSWFQQKPGQPPKLLIYWASTLAYGVPSRFSGSGSGTDFTLTISSLQPEDAATYYCAGGYGGGRYAFGQGTKVEIKRTVAAPSVFIFPPSDEQLKSGTASVVCLLNNFYPREAKVQWKVDNALQSGNSQESVTEQDSKDSTYSLSSTLTLSKADYEKHKVYACEVTHQGLSSPVTKSFNRGEC
notes: as for B1
KD fold (SG1 = 1) [6]: 1.6 fold
KD fold (SG1 = 1) [3]: 3.1 fold
KD fold (SG1 = 1) [7]: 3.9 fold
KD fold (SG1 = 1) [8]: 4.5 fold
Kd [1]: 0.68 µM

B5: M103205H795-MY038/M103202L889-SK1 (antibody, human IgG1, kappa, name in EU numbering)
heavy: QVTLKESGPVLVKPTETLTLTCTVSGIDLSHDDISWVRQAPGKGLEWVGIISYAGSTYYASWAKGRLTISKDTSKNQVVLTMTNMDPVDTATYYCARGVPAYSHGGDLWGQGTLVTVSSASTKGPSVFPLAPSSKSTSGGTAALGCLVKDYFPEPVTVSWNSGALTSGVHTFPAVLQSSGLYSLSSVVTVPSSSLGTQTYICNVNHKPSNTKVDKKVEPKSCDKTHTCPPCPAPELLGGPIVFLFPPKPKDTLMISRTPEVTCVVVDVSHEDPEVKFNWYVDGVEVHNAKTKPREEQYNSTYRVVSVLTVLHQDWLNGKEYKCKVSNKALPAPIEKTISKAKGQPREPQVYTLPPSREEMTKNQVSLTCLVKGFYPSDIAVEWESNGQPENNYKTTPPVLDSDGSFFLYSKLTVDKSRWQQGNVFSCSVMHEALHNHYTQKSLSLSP
light: DIVMTQSPATLSLSPGERATLSCTSSQSVYHANWLSWFQQKPGQPPKLLIYWASTLAYGVPSRFSGSGSGTDFTLTISSLQPEDAATYYCAGGYGGGRYAFGQGTKVEIKRTVAAPSVFIFPPSDEQLKSGTASVVCLLNNFYPREAKVQWKVDNALQSGNSQESVTEQDSKDSTYSLSSTLTLSKADYEKHKVYACEVTHQGLSSPVTKSFNRGEC
notes: as for B1
Kd [5]: 0.55 µM

B6: MS103240H795-TT68/M103202L1045-SK1 (antibody)
heavy: QVQLVESGGGLVQPGGSLRLSCAVSGIDLSHDDISWVRQAPGKGLEWVSIISYAGSTYYASWAKGRLTISKDTSKNQVVLTMTNMDPVDTATYYCARGVPAYSHGGDLWGQGTLVTVSSASTKGPSVFPLAPSSKSTSGGTAALGCLVKDYFPEPVTVSWNSGALTSGVHTFPAVLQSSGLYSLSSVVTVPSSSLGTQTYICNVNHKPSNTKVDKKVEPKSCDKTHTCPPCPAPELLGGDSVFLFPPKPKDVLMISRTPEVTCVVVDVSHEDPEVKFNWYVDGVEVHNAKTKPREEQYNSTYRVVSVLPVLHRDWLNGKEYKCKVSNKALPKPIEKTISKAKGQPREPQVYTLPPSREEMTKNQVSLTCLVKGFYPSDIAVEWESNGQPENNYKTTPPVLDSDGSFFLYSKLTVKKSRWQQGNVFSCSVMHEALHAHYTRKELSLSP
light: DIVMTQSPATLSLSPGERATLSCTTSQSVYHENWLSWFQQKPGQPPKLLIYWASTLAYGVPSRFSGSGSGTDFTLTISSLQPEDAATYYCAGGYGGGRYAFGQGTKVEIKRTVAAPSVFIFPPSDEQLKSGTASVVCLLNNFYPREAKVQWKVDNALQSGNSQESVTEQDSKDSTYSLSSTLTLSKADYEKHKVYACEVTHQGLSSPVTKSFNRGEC
notes: copies: 2 + 2
KD fold (SG1 = 1) [2]: 0.006 fold
